Bridge positions count the residues as written; N and C are the ends.

B1: SEQ ID NO:266 (peptide)
peptide: Ac-AGWVECWWKSGQCYEFGTGGGK-NH2
modifications: cysteine pairing not given here; also: C-terminal Lys fluorescein-labeled for some assays, unlabeled for others
B2: SEQ ID NO:284 (peptide)
peptide: Ac-AGVGWVECYQSTGFCYHSRDGTGGGK-NH2
modifications: cysteine pairing not given here; also: C-terminal Lys fluorescein-labeled in some assays
B3: SEQ ID NO:487 (peptide)
peptide: Ac-GDSSVCFEYSWGGEVCFRYDPGGGK-NH2
modifications: disulfide 6-16 (inferred); not fully specified; also: C-terminal Lys fluorescein-labeled in some assay forms
B4: SEQ ID NO:297 (peptide)
peptide: Ac-GDDSYCMMNEKGWWNCYLYDPGGGK-NH2
modifications: cysteine pairing not given here; also: C-terminal Lys fluorescein-labeled in some assays
B5: SEQ ID NO:488 (peptide)
peptide: Ac-GDSRVCWEYSWGGQICLGYDPGGGK-NH2
modifications: disulfide 6-16 (inferred); not fully specified; also: C-terminal Lys fluorescein-labeled in some assay forms

For one test, the target named is T1, human KDR-Fc fusion (R&D Systems #357-KD-050) (human, UniProt P35968 20-764).
T1 construct: bought
T1 sequence (P35968 20-764): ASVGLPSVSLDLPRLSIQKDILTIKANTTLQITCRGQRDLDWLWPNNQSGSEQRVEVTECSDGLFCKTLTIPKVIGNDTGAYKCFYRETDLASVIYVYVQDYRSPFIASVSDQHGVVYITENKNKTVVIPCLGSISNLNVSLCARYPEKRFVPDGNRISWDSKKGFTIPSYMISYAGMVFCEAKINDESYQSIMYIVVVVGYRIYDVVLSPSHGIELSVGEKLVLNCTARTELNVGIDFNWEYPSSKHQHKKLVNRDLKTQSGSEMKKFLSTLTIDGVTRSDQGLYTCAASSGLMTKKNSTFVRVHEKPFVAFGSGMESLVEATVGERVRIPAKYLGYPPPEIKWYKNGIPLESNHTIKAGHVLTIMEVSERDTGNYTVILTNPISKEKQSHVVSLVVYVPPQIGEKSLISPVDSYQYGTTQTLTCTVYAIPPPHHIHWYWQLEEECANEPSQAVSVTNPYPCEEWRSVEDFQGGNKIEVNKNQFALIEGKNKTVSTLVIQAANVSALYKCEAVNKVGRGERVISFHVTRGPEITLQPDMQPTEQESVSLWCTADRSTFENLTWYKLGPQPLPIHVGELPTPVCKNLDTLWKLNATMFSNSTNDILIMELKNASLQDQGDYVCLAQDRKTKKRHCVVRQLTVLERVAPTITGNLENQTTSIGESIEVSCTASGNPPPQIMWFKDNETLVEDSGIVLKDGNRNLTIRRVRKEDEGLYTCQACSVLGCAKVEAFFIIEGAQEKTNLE
The test is described as follows: fluorescence anisotropy, fluorescein-labeled peptide.
For the molecule Ac-GDPAQCWESNYQGIFFCDNPDPGGGK-NH2 (disulfide 6-17 (inferred); not fully specified) [SEQ ID NO:298], the Kd was found to be 2300 nM.

As for Ac-AGDWGCSLGNWYWCSTEGTGGGK-NH2 (disulfide 6-14 (inferred); not fully specified) [SEQ ID NO:313], binding was put at a Kd of 2000 nM.

As for Ac-GDPPLCYFVGTQEWHHCNPFDPGGGK-NH2 (disulfide 6-17 (inferred); not fully specified) [SEQ ID NO:296], the Kd came to 600 nM.

Ac-AGPEWCEVDWYYCWLLGTGGGK-NH2 (disulfide 6-13 (inferred); not fully specified) [SEQ ID NO:276] gave a Kd of 75 nM.

Regarding B1, the affinity, expressed as Kd, was 1300 nM.

For the molecule Ac-AGQAWVECYAETGYCWPRSWGTGGGK-NH2 (disulfide 8-15 (inferred); not fully specified) [SEQ ID NO:282], the Kd is 710 nM.

In turn, Ac-AGQAWIECYAEDGYCWPRSWGTGGGK-NH2 (disulfide 8-15 (inferred); not fully specified) [SEQ ID NO:283] returned a Kd of 1400 nM.

Ac-GSNSHCYIWDGMWLCFPDAPGGGK-NH2 (disulfide 6-15 (inferred); not fully specified) [SEQ ID NO:315] registered a Kd of 740 nM.

Consider Ac-SGRLDCDKVFSGPYGKVCVSYGSGGGK-NH2 (disulfide 6-18 (inferred); not fully specified) [SEQ ID NO:316], for which the Kd was found to be 1050 nM.

The molecule Ac-AQRSWYLGPPYYEEWDPIPNGGK-NH2 (not fully specified) [SEQ ID NO:309] displayed a Kd of 1800 nM.

With Ac-AGDSWVECDAQTGFCYSFLYGTGGGK-NH2 (disulfide 8-15 (inferred); not fully specified) [SEQ ID NO:287], binding was put at a Kd of 2300 nM.

Consider Ac-SGAHQCHHWTSGPYGEVCFNYGSGGGK-NH2 (disulfide 6-18 (inferred); not fully specified) [SEQ ID NO:319], for which the Kd is ~2000 nM.

Molecule Ac-AGEGWVECFANTGACFTYPRGTGGGK-NH2 (disulfide 8-15 (inferred); not fully specified) [SEQ ID NO:292] returned a Kd of 2100 nM.

Molecule B2 yielded a Kd of 1300 nM.

Consider Ac-AGANWCEEDWYYCWITGTGGGK-NH2 (disulfide 6-13 (inferred); not fully specified) [SEQ ID NO:272], for which the Kd was determined as 97 nM.

In turn, Ac-AGANWCEEDWYYCFITGTGGGK-NH2 (disulfide 6-13 (inferred); not fully specified) [SEQ ID NO:271] returned a Kd of 310 nM.

In turn, Ac-AGVNWCEEDWYYCWITGTGGGK-NH2 (disulfide 6-13 (inferred); not fully specified) [SEQ ID NO:280] had a Kd of 260 nM.

The molecule Ac-AGANWCEEDWYYCYITGTGGGK-NH2 (disulfide 6-13 (inferred); not fully specified) [SEQ ID NO:281] came in with a Kd of 180 nM.

In the case of Ac-AGRNWCEEDWYYCFITGTGGGK-NH2 (disulfide 6-13 (inferred); not fully specified) [SEQ ID NO:279], the affinity, expressed as Kd, was 190 nM.

Ac-AGPDWCEEDWYYCWITGTGGGK-NH2 (disulfide 6-13 (inferred); not fully specified) [SEQ ID NO:273] had a Kd of 75 nM.

Ac-AGSNWCEEDWYYCYITGTGGGK-NH2 (disulfide 6-13 (inferred); not fully specified) [SEQ ID NO:274] came in with a Kd of 46 nM.

As for Ac-GDNWKCEYTQGYDYTECVYLDPGGGK-NH2 (disulfide 6-17 (inferred); not fully specified) [SEQ ID NO:302], the Kd stood at 820 nM.

Consider Ac-AGVAWVECYQTTGKCYTFRGGTGGGK-NH2 (disulfide 8-15 (inferred); not fully specified) [SEQ ID NO:291], for which the Kd is ~2000 nM.

In the case of Ac-SGRTTCHHQISGPHGKICVNYGSGGGK-NH2 (disulfide 6-18 (inferred); not fully specified) [SEQ ID NO:318], binding was put at a Kd of 650 nM.

Take Ac-AGSDWCRVDWYYCWLMGTGGGK-NH2 (disulfide 6-13 (inferred); not fully specified) [SEQ ID NO:270]: the affinity, expressed as Kd, was 64 nM.

Molecule Ac-AGFTWVECHQATGRCVEWTTGTGGGK-NH2 (disulfide 8-15 (inferred); not fully specified) [SEQ ID NO:285] registered a Kd of 2000 nM.

Consider Ac-AGPWTCWLEDHLACAMLGTGGGK-NH2 (disulfide 6-14 (inferred); not fully specified) [SEQ ID NO:312], for which the Kd turned out to be 3900 nM.

The molecule Ac-AGVWECAKTFPFCHWFGTGGGK-NH2 (disulfide 6-13 (inferred); not fully specified) [SEQ ID NO:265] yielded a Kd of 2600 nM.

Turning to Ac-AGGGWVECYWATGRCIEFAGGTGGGK-NH2 (disulfide 8-15 (inferred); not fully specified) [SEQ ID NO:288], the binding result is listed as “no binding”.

Ac-AGGGWVECRAETGHCQEYRLGTGGGK-NH2 (disulfide 8-15 (inferred); not fully specified) [SEQ ID NO:290] registered a dissociation constant Kd of 1600 nM.

B3 gave a Kd of 58 nM.

Ac-AGPDWCAADWYYCYITGTGGGK-NH2 (disulfide 6-13 (inferred); not fully specified) [SEQ ID NO:275] displayed a Kd of 57 nM.

With Ac-AGSKWCEQDWYYCWLLGTGGGK-NH2 (disulfide 6-13 (inferred); not fully specified) [SEQ ID NO:278], binding was put at a Kd of 400 nM.

As to B4, the Kd was 1300 nM.

Ac-AGWIQCNSITGHCTSGGTGGGK-NH2 (disulfide 6-13 (inferred); not fully specified) [SEQ ID NO:268] came in with a Kd of 240 nM.

For the molecule Ac-AGERWVECRAETGFCYTWVSGTGGGK-NH2 (disulfide 8-15 (inferred); not fully specified) [SEQ ID NO:289], the affinity, expressed as Kd, was 2100 nM.

In turn, Ac-AQQVQYQFFLGTPRYEQWDLDKGGK-NH2 (not fully specified) [SEQ ID NO:304] displayed a Kd of 1700 nM.

The molecule B5 displayed a Kd of 320 nM.

As to Ac-SGRLDCDKVFSGPHGKICVNYGSGGGK-NH2 (disulfide 6-18 (inferred); not fully specified) [SEQ ID NO:317], the Kd is ~2000 nM.

The target of the next test is T1, human KDR-Fc fusion (R&D Systems …). The test is described as follows: phage binding screen on KDR-Fc; class legend in paragraph 246.
For PKWCEEDWYYCMIT [phage isolate PKWCEEDWYYCMIT], the binding result is on record as “binds”.

Values taken from EP2014310A2 (Dyax Corporation, dated 2009).
